Measured values taken from the supplement of paper PMC11246515.
± gives the standard deviation of the averaged measurements.

Experiment: total protein half-life in vivo (active degradation + dilution); higher = more stable protein
[1] = E. coli NCM3722 delta-clpP delta-lon delta-hslV, growth: N-lim chemostat, doubling time 6 h
[2] = E. coli NCM3722 delta-clpP, growth: N-lim chemostat, doubling time 6 h
[3] = wild type E. coli NCM3722, growth: C-lim chemostat, doubling time 6 h
[4] = wild type E. coli NCM3722, growth: C-lim chemostat, doubling time 12 h
[5] = wild type E. coli NCM3722, growth: P-lim chemostat, doubling time 12 h
[6] = E. coli NCM3722 delta-hslV, growth: N-lim chemostat, doubling time 6 h
[7] = E. coli NCM3722 delta-lon, growth: N-lim chemostat, doubling time 6 h
[8] = E. coli NCM3722 delta-smpB, growth: N-lim chemostat, doubling time 6 h
[9] = wild type E. coli NCM3722, growth: C-lim chemostat, doubling time 3 h
[10] = wild type E. coli NCM3722, growth: N-lim chemostat, doubling time 6 h
[11] = wild type E. coli NCM3722, growth: N-lim chemostat, doubling time 12 h
[12] = wild type E. coli NCM3722, growth: P-lim chemostat, doubling time 6 h

Row | Sequence | total protein half-life in vivo [1] [h] | total protein half-life in vivo [2] [h] | total protein half-life in vivo [3] [h] | total protein half-life in vivo [4] [h] | total protein half-life in vivo [5] [h] | total protein half-life in vivo [6] [h] | total protein half-life in vivo [7] [h] | total protein half-life in vivo [8] [h] | total protein half-life in vivo [9] [h] | total protein half-life in vivo [10] [h] | total protein half-life in vivo [11] [h] | total protein half-life in vivo [12] [h]
1 | MPRGLELLIAQTILQGFDAQYGRFLEVTSGAQQRFEQADWHAVQQAMKNRIHLYDHHVGLVVEQLRCITNGQSTDAAFLLRVKEHYTRLLPDYPRFEIAESFFNSVYCRLFDHRSLTPERLFIFSSQPERRFRTIPRPLAKDFHPDHGWESLLMRVISDLPLRLRWQNKSRDIHYIIRHLTETLGTDNLAESHLQVANELFYRNKAAWLVGKLITPSGTLPFLLPIHQTDDGELFIDTCLTTTAEASIVFGFARSYFMVYAPLPAALVEWLREILPGKTTAELYMAIGCQKHAKTESYREYLVYLQGCNEQFIEAPGIRGMVMLVFTLPGFDRVFKVIKDRFAPQKEMSAAHVRACYQLVKEHDRVGRMADTQEFENFVLEKRHISPALMELLLQEAAEKITDLGEQIVIRHLYIERRMVPLNIWLEQVEGQQLRDAIEEYGNAIRQLAAANIFPGDMLFKNFGVTRHGRVVFYDYDEICYMTEVNFRDIPPPRYPEDELASEPWYSVSPGDVFPEEFRHWLCADPRIGPLFEEMHADLFRADYWRALQNRIREGHVEDVYAYRRRQRFSVRYGEMLF | 4.97 | 3.61 | 6.35 ± 0.23 | 10.7 ± 0.2 | 11.9 |  |  |  |  |  |  | 
2 | MPRSTWFKALLLLVALWAPLSQAETGWQPIQETIRKSDKDNRQYQAIRLDNGMVVLLVSDPQAVKSLSALVVPVGSLEDPEAYQGLAHYLEHMSLMGSKKYPQADSLAEYLKMHGGSHNASTAPYRTAFYLEVENDALPGAVDRLADAIAEPLLDKKYAERERNAVNAELTMARTRDGMRMAQVSAETINPAHPGSKFSGGNLETLSDKPGNPVQQALKDFHEKYYSANLMKAVIYSNKPLPELAKMAADTFGRVPNKESKKPEITVPVVTDAQKGIIIHYVPALPRKVLRVEFRIDNNSAKFRSKTDELITYLIGNRSPGTLSDWLQKQGLVEGISANSDPIVNGNSGVLAISASLTDKGLANRDQVVAAIFSYLNLLREKGIDKQYFDELANVLDIDFRYPSITRDMDYVEWLADTMIRVPVEHTLDAVNIADRYDAKAVKERLAMMTPQNARIWYISPKEPHNKTAYFVDAPYQVDKISAQTFADWQKKAADIALSLPELNPYIPDDFSLIKSEKKYDHPELIVDESNLRVVYAPSRYFASEPKADVSLILRNPKAMDSARNQVMFALNDYLAGLALDQLSNQASVGGISFSTNANNGLMVNANGYTQRLPQLFQALLEGYFSYTATEDQLEQAKSWYNQMMDSAEKGKAFEQAIMPAQMLSQVPYFSRDERRKILPSITLKEVLAYRDALKSGARPEFMVIGNMTEAQATTLARDVQKQLGADGSEWCRNKDVVVDKKQSVIFEKAGNSTDSALAAVFVPTGYDEYTSSAYSSLLGQIVQPWFYNQLRTEEQLGYAVFAFPMSVGRQWGMGFLLQSNDKQPSFLWERYKAFFPTAEAKLRAMKPDEFAQIQQAVITQMLQAPQTLGEEASKLSKDFDRGNMRFDSRDKIVAQIKLLTPQKLADFFHQAVVEPQGMAILSQISGSQNGKAEYVHPEGWKVWENVSALQQTMPLMSEKNE | 6.72 ± 0.29 | 6.24 ± 0.52 | 5.91 ± 0.59 | 11.5 ± 0.5 | 11.1 ± 0.72 | 5.96 ± 0.35 | 6.46 ± 0.14 | 5.53 ± 0.073 | 3.05 ± 0.33 | 6.17 ± 0.092 | 11.7 ± 0.35 | 5.28 ± 0.059
3 | MPSARLQQQFIRLWQCCEGKSQDTTLNELAALLSCSRRHMRTLLNTMQDRGWLTWEAEVGRGKRSRLTFLYTGLALQQQRAEDLLEQDRIDQLVQLVGDKATVRQMLVSHLGRSFRQGRHILRVLYYRPLRNLLPGSALRRSETHIARQIFSSLTRINEENGELEADIAHHWQQISPLHWRFFLRPGVHFHHGRELEMDDVIASLKRINTLPLYSHIADIVSPTPWTLDIHLTQPDRWLPLLLGQVPAMILPREWETLSNFASHPIGTGPYAVIRNSTNQLKIQAFDDFFGYRALIDEVNVWVLPEIADEPAGGLMLKGPQGEEKEIESRLEEGCYYLLFDSRTHRGANQQVRDWVSYVLSPTNLVYFAEEQYQQLWFPAYGLLPRWHHARTIKSEKPAGLESLTLTFYQDHSEHRVIAGIMQQILASHQVTLKIKEIDYDQWHTGEIESDIWLNSANFTLPLDFSVFAHLCEVPLLQHCIPIDWQADAARWRNGEMNLANWCQQLVASKAMVPLLHHWLIIQGQRSMRGLRMNTLGWFDFKSAWFAPPDP | 6.14 ± 0.11 | 6.77 ± 0.29 | 5.64 ± 0.28 | 11.9 ± 2.8 | 9.889 ± 0.087 |  | 5.83 ± 0.34 | 5.32 ± 0.33 |  | 5.67 ± 0.6 | 13.4 ± 0.32 | 5.35 ± 0.34
4 | MPSTRYQKINAHHYRHIWVVGDIHGEYQLLQSRLHQLSFFPKIDLLISVGDNIDRGPESLDVLRLLNQPWFTSVKGNHEAMALEAFETGDGNMWLASGGDWFFDLNDSEQQEAIDLLLKFHHLPHIIEITNDNIKYAIAHADYPGSEYLFGKEIAESELLWPVDRVQKSLNGELQQINGADYFIFGHMMFDNIQTFANQIYIDTGSPNSGRLSFYKIK |  |  |  | > 16 | > 16 |  |  |  |  | 4.06 |  | 
5 | MPTKMRTTRNLLLMATLLGSALFARAAEKEMTIGAIYLDTQGYYAGVRQGVQDAAKDSSVQVQLIETNAQGDISKESTFVDTLVARNVDAIILSAVSENGSSRTVRRASEAGIPVICYNTCINQKGVDKYVSAYLVGDPLEFGKKLGNAAADYFIANKIDQPKIAVINCEAFEVCVQRRKGFEEVLKSRVPGAQIVANQEGTVLDKAISVGEKLIISTPDLNAIMGESGGATLGAVKAVRNQNQAGKIAVFGSDMTTEIAQELENNQVLKAVVDISGKKMGNAVFAQTLKVINKQADGEKVIQVPIDLYTKTEDGKQWLATHVDGLP |  |  | 6.18 ± 0.59 | 10.2 ± 0.31 | 13.19 ± 0.1 |  | > 8 | 5.48 ± 2.3 | 3.51 ± 0.069 |  |  | > 8
6 | MPTQEAKAHHVGEWASLRNTSPEIAEAIFEVAGYDEKMAEKIWEEGSDEVLVKAFAKTDKDSLFWGEQTIERKNV [P0AB14] | 5.53 ± 0.41 |  | 4.15 ± 0.58 | 5.68 ± 1 | 5.43 ± 0.18 | 2.63 | 3.45 ± 0.75 | 2.46 ± 0.13 | 2.55 ± 0.13 | 2.39 ± 0.054 | 3.85 ± 1.1 | 3.02 ± 0.39
7 | MPVFALLALVAYSVSLALIVPGLLQKNGGWRRMAIISAVIALVCHAIALEARILPDGDSGQNLSLLNVGSLVSLMICTVMTIVASRNRGWLLLPIVYAFALINLALATFMPNEYITHLEATPGMLVHIGLSLFSYATLIIAALYALQLAWIDYQLKNKKLAFNQEMPPLMSIERKMFHITQIGVVLLTLTLCTGLFYMHNLFSMENIDKAVLSIVAWFVYIVLLWGHYHEGWRGRRVVWFNVAGAVILTLAYFGSRIVQQLIS |  |  |  | 13.6 | 15.5 |  |  |  |  | 6.45 |  | 
